From article PMC6609622, “Poly(ADP-ribose) polymerase-1 antagonizes DNA resection at double-strand breaks”

Molecular target: PARP-1 (human, UniProt P09874 1-1014)
Experiment: EMSA; 5 and 30 uM NAD+; remains bound; EMSA: 20 mM Na-HEPES pH 7.5, 0.1 mM DTT, 0.05% Triton X-100, 100 ug/mL BSA, 5 mM MgCl2, 2 mM ATP, 100 nM DNA, 37 C 10 min, then 0.2% glutaraldehyde 15 min; DNA
Conditions: protein: recombinant; label: 32P; blunt

Sequence of PARP-1 (P09874 whole entry): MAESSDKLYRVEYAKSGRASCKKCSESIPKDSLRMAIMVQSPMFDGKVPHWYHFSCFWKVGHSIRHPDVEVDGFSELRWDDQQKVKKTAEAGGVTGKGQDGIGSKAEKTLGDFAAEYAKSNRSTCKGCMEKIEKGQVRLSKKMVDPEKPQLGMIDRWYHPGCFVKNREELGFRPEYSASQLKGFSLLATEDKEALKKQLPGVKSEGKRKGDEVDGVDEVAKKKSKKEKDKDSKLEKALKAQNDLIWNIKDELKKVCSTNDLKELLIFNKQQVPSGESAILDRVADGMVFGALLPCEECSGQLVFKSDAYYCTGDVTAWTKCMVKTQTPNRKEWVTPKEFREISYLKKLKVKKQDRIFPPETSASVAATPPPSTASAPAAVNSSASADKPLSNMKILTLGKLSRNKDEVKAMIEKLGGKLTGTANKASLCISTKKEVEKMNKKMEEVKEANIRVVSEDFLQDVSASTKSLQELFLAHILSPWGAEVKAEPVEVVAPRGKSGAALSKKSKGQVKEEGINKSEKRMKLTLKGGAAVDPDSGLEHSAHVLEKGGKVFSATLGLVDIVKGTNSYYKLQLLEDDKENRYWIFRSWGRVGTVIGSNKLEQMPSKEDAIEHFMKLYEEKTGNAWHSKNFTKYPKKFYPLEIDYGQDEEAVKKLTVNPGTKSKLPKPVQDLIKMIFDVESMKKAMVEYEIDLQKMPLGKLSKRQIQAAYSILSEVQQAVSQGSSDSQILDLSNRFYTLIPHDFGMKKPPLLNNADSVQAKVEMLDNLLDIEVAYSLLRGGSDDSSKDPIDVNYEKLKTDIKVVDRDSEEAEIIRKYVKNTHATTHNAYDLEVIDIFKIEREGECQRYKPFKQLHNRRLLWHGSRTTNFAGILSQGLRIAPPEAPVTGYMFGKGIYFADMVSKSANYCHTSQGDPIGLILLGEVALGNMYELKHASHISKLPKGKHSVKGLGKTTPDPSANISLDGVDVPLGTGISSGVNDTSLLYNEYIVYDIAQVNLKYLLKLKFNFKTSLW

B1: JYM696/JYM698 (dsDNA)
DNA 1: GGGCGAATTGGGCCCGACGTCGCATGCTCCTCTAGACTCGAGGAATTCGGTACCCCGGGTTCGAAATCGATAAGCTTACAGTCTCCATTTAAAGGACAAG
DNA 2: CTTGTCCTTTAAATGGAGACTGTAAGCTTATCGATTTCGAACCCGGGGTACCGAATTCCTCGAGTCTAGAGGAGCATGCGACGTCGGGCCCAATTCGCCC
binding result: binds
